Assays:
[1] = molecular target: T1, GLP-1 receptor (GLP-1R) (Homo sapiens, UniProt P43220); test: GLP-1R activation, cAMP responsive luciferase reporter in HEK293 cells; format: cell-based; conditions: HEK293 cells expressing GLP-1R, 24 h
T1 construct: expressed in transfected cells; host or cells: HEK293 cells expressing surface GLP-1R and a cAMP responsive luciferase reporter
Experimental: HEK293 cells expressing surface GLP-1R and cAMP responsive luciferase reporter gene were seeded in 384 well plates at a density of 5000 cells per well. […] Subsequently, luciferase assay was performed using One-Glo luciferase reagent according manufacture's instruction (Promega).
HEK293 cells expressing surface GLP-1R and cAMP responsive luciferase reporter gene were seeded in 384 well plates at a density of 5000 cells per well. After 24 h incubation at 37° C. with 5% CO2, cells were treated with various concentrations of peptides and BLV1H12-GLP-1 clip fusion proteins and incubated for another 24 h. Subsequently, luciferase assay was performed using One-Glo luciferase reagent according manufacture's instruction (Promega).

[2] = test system: human peripheral blood mononuclear cells (PBMCs); test: Inhibition of human PBMC activation (secreted TNF-α ELISA); format: cell-based; conditions: PBMCs activated by anti-CD3 and CD28 antibodies, 24 h
Experimental: Human PBMCs were isolated from fresh venous blood of healthy donors through ficoll gradient centrifugation, followed by resuspension in RPMI1640 medium with 10% FBS and plating in 96-well plates at a density of 1×10^6 cells/mL. Human T cells were purified from the isolated PBMCs using T cell enrichment kit. Purified PBMCs and T cells were pretreated for 1 h at 37° C. with 5% CO2 with various concentrations of purified BLV1H12-Moka1 fusion antibodies and then activated by anti-CD3 and CD28 antibodies. After 24 h treatment, supernatant was collected for measurement of the levels of secreted TNF-α using ELISA kit.

[3] = test system: mice neutrophils; test: Neutrophils counts in mice; format: in vivo; conditions: mice blood, 10th day post-injection, neutrophils among white blood cells
Experimental: On the 10th day after injection of BLV1H12-bGCSF fusion antibodies into mice for PK study, blood samples were drawn from the mice and stained using the Diff Quick Staining Kit (Thermo Fisher Scientific, IL). Neutrophils and white blood cells were counted under microscope and the percentages of neutrophils were analyzed. FIGS. 12A-12B and Table 12 show proliferative activities of BLV1H12-bGCSF fusion antibodies on mice neutrophils that are blood stained and counted at the 10th day post-injection.

[4] = test system: Parental U2OS; test: Flow cytometry binding to parental cells; conditions: cell culture supernatant containing expressed IgG, anti-Human Fc detection
Experimental: Briefly, a cell line expressing functionally validated CXCR1 derived from U2OS cells was obtained from DiscoveRx and cultured per manufacturer's instructions (Cat#93-0226C3, DiscoveRx Corporation, Freemont, Calif.). The parental cell line U20S was obtained from ATCC and cultured under the same conditions as the CXCR1 cells. Cell culture supernatants from Example 2 above were then tested for binding to cells by flow cytometry. The adherent U20S or CXCR1-U20S cells were dissociated with Accutase (Innovative Cell Technologies, Inc., San Diego, Calif.), neutralized with an equal volume of media containing 10% serum, centrifuged at 1000 g, and resuspended in PBS with 2% BSA. Next, cells were dispensed into microtiter plates to achieve between 30,000 to 300,000 cells per well, centrifuged again, and resuspended in cell culture supernatant containing expressed IgG, or a dilution of IgG-containing cell culture supernatant. A fluorescent-conjugated anti-Human Fc antibody was used to detect binding of the expressedBLV1H12-IL8 fusion proteins to cells.

[5] = Pharmacokinetics of BLV1H12-bGCSF fusion antibodies in mice; format: in vivo; conditions: BALB/c mice, 70 μg injected
Experimental: For PK study in mice, 70 μg of the immunoglobulin constructs described herein were injected into 3 BALB/c mice per group. Blood samples were drawn from time 0 to 14 days with extended intervals and analyzed by ELISA using anti-human IgG Fc antibody with horseradish peroxidase (HRP) labeled (KPL) and anti-6×His antibody with HRP labeled (Clontech). Data were normalized by taking maximal concentration at the first time point (30 min).

T1 sequence (P43220 24-463, species assumed): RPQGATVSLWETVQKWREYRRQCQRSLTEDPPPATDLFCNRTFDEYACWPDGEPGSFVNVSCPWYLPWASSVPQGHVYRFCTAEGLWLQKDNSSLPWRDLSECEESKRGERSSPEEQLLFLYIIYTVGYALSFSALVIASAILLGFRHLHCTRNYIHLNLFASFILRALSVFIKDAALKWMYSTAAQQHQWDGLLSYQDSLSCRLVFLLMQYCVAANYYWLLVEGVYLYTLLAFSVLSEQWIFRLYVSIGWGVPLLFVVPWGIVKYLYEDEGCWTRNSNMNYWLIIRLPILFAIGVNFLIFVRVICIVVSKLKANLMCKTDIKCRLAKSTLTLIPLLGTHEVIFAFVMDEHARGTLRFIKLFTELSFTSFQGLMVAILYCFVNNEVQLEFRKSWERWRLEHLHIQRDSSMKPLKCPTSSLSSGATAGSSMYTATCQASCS

B1: Ab: bovine BLV1H12 antibody with ultralong CDR3, no inserted polypeptide; heavy chain SEQ ID NO: 24, light chain SEQ ID NO: 23 (antibody)
heavy: QVQLRESGPSLVKPSQTLSLTCTASGFSLSDKAVGWVRQAPGKALEWLGSIDTGGNTGYNPGLKSRLSITKDNSKSQVSLSVSSVTTEDSATYYCTSVHQETKKYQSCPDGYRERSDCSNRPACGTSDCCRVSVFGNCLTTLPVSYSYTYNYEWHVDVWGQGLLVTVSS
light: QAVLNQPSSVSGSLGQRVSITCSGSSSNVGNGYVSWYQLIPGSAPRTLIYGDTSRASGVPDRFSGSRSGNTATLTISSLQAEDEADYFCASAEDSSSNAVFGSGTTLTVLGQPKSPPSVTLFPPSTEELNGNKATLVCLISDFYPGSVTVVWKADGSTITRNVETTRASKQSNSKYAASSYLSLTSSDWKSKGSYSCEVTHEGSTVTKTVKPSECS
RLU (luciferase reporter) ([1]; 1.26953 nM): 5200 | RLU (luciferase reporter) ([1]; 2.53906 nM): 5000 | RLU (luciferase reporter) ([1]; 5.07813 nM): 5600 | RLU (luciferase reporter) ([1]; 10.15625 nM): 5500 | RLU (luciferase reporter) ([1]; 20.3125 nM): 5380 | RLU (luciferase reporter) ([1]; 40.625 nM): 4600 | RLU (luciferase reporter) ([1]; 81.25 nM): 6140 | RLU (luciferase reporter) ([1]; 162.5 nM): 5760 | RLU (luciferase reporter) ([1]; 325 nM): 5600 | RLU (luciferase reporter) ([1]; 650 nM): 5800 | RLU (luciferase reporter) ([1]; 1300 nM): 14000 | F.I. (secreted TNF-α, ELISA) ([2]; 2 nM): 2334 | F.I. (secreted TNF-α, ELISA) ([2]; 20 nM): 2186 | F.I. (secreted TNF-α, ELISA) ([2]; 200 nM): 1982 | F.I. (secreted TNF-α, ELISA) ([2]; 400 nM): 1733 | Percentage of Neutrophil [3]: 18.81 | Median Arbitrary Fluorescence Units (AFU) [4]: 4 AFU | Percentage (normalized to maximal concentration at the first time point, 30 min) ([5]; day 0.021): 100.00% | Percentage (normalized to maximal concentration at the first time point, 30 min) ([5]; day 0.042): 106.09% | Percentage (normalized to maximal concentration at the first time point, 30 min) ([5]; day 0.083): 95.88% | Percentage (normalized to maximal concentration at the first time point, 30 min) ([5]; day 0.125): 86.54% | Percentage (normalized to maximal concentration at the first time point, 30 min) ([5]; day 0.250): 74.26% | Percentage (normalized to maximal concentration at the first time point, 30 min) ([5]; day 1.000): 52.43% | Percentage (normalized to maximal concentration at the first time point, 30 min) ([5]; day 2.000): 39.46% | Percentage (normalized to maximal concentration at the first time point, 30 min) ([5]; day 3.000): 36.97% | Percentage (normalized to maximal concentration at the first time point, 30 min) ([5]; day 8.000): 45.44% | Percentage (normalized to maximal concentration at the first time point, 30 min) ([5]; day 10.000): 40.98% | Percentage (normalized to maximal concentration at the first time point, 30 min) ([5]; day 14.000): 51.96%
